The record followed here is US20260356955 (published 2026).

B1: Hu22F10G3-2.3-NA (antibody, V domains shown)
VH: QVQLQESGPGLVKPSQTLSLTCTVSGYSLTSDFAWNWIRQHPGKGLEWMGDIRYSGSTDYNPSLKGRVTISRDTSKNQFSLKLSSVTAADTAVYYCARGGYYGYDEGYPMDYWGQGTLVTVSS
VL: DIVMTQSPDSLAVSLGERATISCRASESVDVYGNAFMHWYQQKPGQPPKLLIYLAFNLKSGVPDRFSGSGSGTDFTLTISSLQAEDVAVYYCQQNNEDPFTFGQGTKLEIK
B2: Hu22F10G3-2.3 (antibody, V domains shown)
VH: B1 VH
VL: B1 VL with A35S
B3: Hu22F10G3-2.3-QS (antibody, V domains shown)
VH: B1 VH
VL: B1 VL with N34Q, A35S
B4: 47A5H2 chimeric (antibody, V domains shown)
VH: QVQLQQPGAELVRPGASVKLSCKGSGYSFTGYWMHWVKQRPGQGLEWIGMIHPSDSETRLNQKFKDKATLTVDKSSSTTYMQLSSPTSEDSAVYYCASEGLRRGSFAYWGQGTLVTVSA
VL: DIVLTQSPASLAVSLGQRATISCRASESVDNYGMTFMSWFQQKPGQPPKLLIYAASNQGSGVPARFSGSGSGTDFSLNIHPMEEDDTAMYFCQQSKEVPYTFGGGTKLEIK
B5: Hu47A5H2-07 (antibody, V domains shown)
VH: QVQLVQSGAEVKKPGASVKVSCKASGYSFTGYWMHWVRQAPGQGLEWMGMIHPSDSETRLNQKFKDRVTMTVDTSTSTVYMELSSLRSEDTAVYYCASEGLRRGSFAYWGQGTLVTVSS
VL: DIVLTQSPDSLAVSLGERATINCRASESVDNYGMTFMSWFQQKPGQPPKLLIYAASNQGSGVPDRFSGSGSGTDFTLTISSLQAEDVAVYYCQQSKEVPYTFGQGTKLEIK
B6: 50A8F2 chimeric (antibody, V domains shown)
VH: QIQLQQSGPELVKPGASVKISCKASGYTFIDYYINWVKQKPGQGLEWIGWIFPGSGHTKYNENFKGKATLTVDTSSSTAYMHLSSLTSEDTAVYFCARGDRSALGYFDYWGQGSTLTVSS
VL: QIVLTQSPAIMSASLGERVTMTCTASSSVSSTYLHWYQQKPGSSPKLWIYSTSNLASGVPARFSGSGSGTSYSLTFSSMEAEDAATYYCHQYHRSPLTFGAGTKLELK
B7: Hu50A8F2-01 (antibody, V domains shown)
VH: QVQLVQSGAEVKKPGASVKVSCKASGYTFIDYYINWVRQAPGQGLEWMGWIFPGSGHTKYNENFKGRVTMTRDTSTSTVYMELSSLRSEDTAVYYCARGDRSALGYFDYWGQGTTVTVSS
VL: DIQMTQSPSSLSASVGDRVTITCTASSSVSSTYLHWYQQKPGKAPKLLIYSTSNLASGVPSRFSGSGSGTDFTLTISSLQPEDFATYYCHQYHRSPLTFGQGTKLEIK
B8: Hu50A8F2-03 (antibody, V domains shown)
VH: B7 VH
VL: B7 VL with M4L, A44S, F72Y
B9: Hu50A8F2-06 (antibody, V domains shown)
VH: B7 VH with R67K, R72V
VL: B7 VL with F72Y
B10: Hu22F10G3-3.4 (antibody, V domains shown)
VH: B1 VH with V68S
VL: B1 VL with A35S, D64A, V89T
B11: Hu22F10G3-1.1 (antibody, V domains shown)
VH: B1 VH with M49I, R72V
VL: B1 VL with S22N, A35S
B12: 22F10G3 chimeric (antibody, V domains shown)
VH: DVQLQESGPGQVKPSQSLSLTCTVTGYSLTSDFAWNWIRQFPGNRLEWMGDIRYSGSTDYNPSLKGRSSITRDTSKNQFFLQLNSVTTEDTATYYCARGGYYGYDEGYPMDYWGQGTSVTVSS
VL: NIVLTQSPASLAVSLGQRATISCRASESVDVYGNSFMHWYQQKTGQPPKLLIYLAFNLKSGVPARFSGSGSRTDFTLTIDPVEADDAATYYCQQNNEDPFTFGSGTKLEIK
B13: 13H2D11 (antibody, V domains shown)
VH: B4 VH with G24A, G31S, H35N, T79A, L101F
VL: not shown
B14: 92E12F2 (antibody, V domains shown)
VH: DVQLQESGPGLVKPSQSLSLTCSVTGYSITSGYYWNWIRQFPGNKLEWLGYISYDGSNNDNPSLTNRISISRDTSRNQFFLKFNSVTTDDSATYYCARGDFYGYVYWGQGTTLTVSS
VL: DIVLTQSPASLAVSLGQRATISCRASKSVSSSGYTYLHWYQQKPGQPPKLLIYLTSNLDSGVPARFSGSGSGTDFTLNIHPVEEEDAATYYCQHSRELPRTFGGGTKLEIK
B15: 57E2E4 chimeric (antibody, V domains shown)
VH: DVQLQESGPGLVKPSQSLSLTCSVTGYSISSGYYWNWIRQFPGNKLEWMAYISYDGSNNYNPSLKNRVSITRDTSKNQFFLRLNSVTAEDTATYYCTRGDFYGYVYWGQGTTLTVSL
VL: B14 VL with S28R, S31T, G33D, T35S, L37M, T55A, D59E, L98F
B16: 62H1D6 (antibody, V domains shown)
VH: QVQLQQSGPELVRPGVSVKISCKGSGYTFTDYAMHWVKQSHAKSLEWIGVISTYYGNTNYNQKFKGRATMTVDKSSSTAYMELARLTSEDSAIYYCAREYGNYPYYYAMDYWGQGTSVTVSS
VL: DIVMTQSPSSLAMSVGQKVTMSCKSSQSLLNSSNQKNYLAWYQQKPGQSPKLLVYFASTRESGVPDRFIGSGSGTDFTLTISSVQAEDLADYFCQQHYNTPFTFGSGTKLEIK
B17: 7B6C7 chimeric (antibody, V domains shown)
VH: QVQLKESGPGLVAPSQSLSITCTVSGFSLNDYGVNWVRQPPGKALEWLGMIWGDGSTDYNSALKSRLTITKDNSKSQVFLKMNSLHTDDTARYFCARTYNYYHYWYFDVWGAGTTVTVSS
VL: DIQMTQSPASLSASVGETVTITCRASGNIHNYLSWYQQKQGKSPQLLVYNAETLADGVPSRFSGSGSGTQYSLKINNLQPEDFGSYYCQHFWSTPYTFGGGTKLEIK
B18: 66G9C11 (antibody, V domains shown)
VH: HVQLQQSGPELVRPGASVKLSCKASGYIFFTFWMNWVKQRPGQGLEWIGQIFPASGSTNYNEMFEGKATLTVDTSSSTAYMQLSSLTSEDSAVYYCASLERAWFAYWGQGTLVTVSA
VL: DIVLTQSPATLSVTPGDRVSLSCRASQSINNYLHWYQQKSHESPRLLIKYASQSISGIPSRFSGSGSGADFTLSINSVETEDFGMYFCQQSNSWPPTFGGGTKLEIK

Where a chain is given by its changes, count along the chain named.

One experiment has as its target human KLRB1 ECD (human). The experiment is described as follows: SPR.
B1 returned a Kd of 0.14 nM.
Still for that read-out and setting: as for B2, the figure is 0.0688 nM; as for B3, 0.653 nM.

The next experiment deals with T1, cynomolgus KLRB1 ECD (cynomolgus).
T1 chain: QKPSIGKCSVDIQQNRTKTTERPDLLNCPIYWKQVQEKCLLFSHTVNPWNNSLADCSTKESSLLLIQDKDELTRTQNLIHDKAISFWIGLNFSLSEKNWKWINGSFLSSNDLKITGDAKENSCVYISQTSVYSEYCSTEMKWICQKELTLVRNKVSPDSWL
The experiment is described as follows: SPR. (In general: In SPR one partner is held on a chip, and binding of the other changes the refractive index at the surface.)
Regarding B4, the Kd turned out to be 6.61 nM.
Still for that read-out and setting: under B5 stands 3.25 nM.

A further experiment concerns the target human KLRB1 ECD (human). The experiment in a line: SPR. The source holds these as a separate data set.
In turn, B6 had a Kd of 0.229 nM.
As for B7, the Kd is 1.55 nM.
In turn, B8 returned a dissociation constant (Kd) of 0.665 nM.
The same measure, in the same setting: as for B9, the figure is 0.828 nM.

A further experiment has as its target human KLRB1 ECD (human). The experiment is described as follows: SPR. The source holds these as a separate data set.
As for B10, the Kd came out at 0.12 nM.
The molecule B2 registered a Kd of 0.0966 nM.
Regarding B11, the dissociation constant Kd came out at 0.124 nM.
The molecule B12 came in with a Kd of 0.0665 nM.

A further experiment deals with human KLRB1 ECD (human). The experiment is described as follows: SPR. This is another data set of the same source.
Chain of human KLRB1 ECD (human) (chain, as listed by the source): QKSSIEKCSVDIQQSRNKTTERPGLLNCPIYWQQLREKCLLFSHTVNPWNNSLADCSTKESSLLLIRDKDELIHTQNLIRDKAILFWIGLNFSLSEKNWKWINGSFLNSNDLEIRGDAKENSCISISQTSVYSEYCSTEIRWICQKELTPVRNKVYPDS
As to B4, the Kd worked out at 0.712 nM.
The same measure, in the same setting: as for B5, the figure is 1.04 nM.

The target of a further experiment is human KLRB1 ECD (human). The experiment in a line: SPR. This is another data set of the same source.
Molecule B10 came in with a Kd of 0.129 nM.
On the same count and under the same terms, as for B2, the figure is 0.103 nM; as for B11, 0.134 nM.
On the same count and under the same terms, under B12 stands 0.0429 nM.

Another experiment concerns the target human KLRB1 ECD (human). The experiment in a line: SPR. The source holds these as a separate data set.
On to B6, for which binding was characterised by a dissociation constant (Kd) of 0.0521 nM.
Same read-out and setting: as for B4, the figure is 0.306 nM; as for B13, 17.1 nM.
On the same count and under the same terms, under B14 stands 3.33 nM.
Same read-out and setting: as for B15, the figure is 0.575 nM.
Molecule B16 displayed a Kd of 7.03 nM.
Still for that read-out and setting: under B17 stands 0.0147 nM; under B18, 6.38 nM.

In a further experiment the target is human KLRB1 on CHO-K1 (human). The experiment is described as follows: FACS.
Chain of human KLRB1 on CHO-K1 (human) (chain, as listed by the source): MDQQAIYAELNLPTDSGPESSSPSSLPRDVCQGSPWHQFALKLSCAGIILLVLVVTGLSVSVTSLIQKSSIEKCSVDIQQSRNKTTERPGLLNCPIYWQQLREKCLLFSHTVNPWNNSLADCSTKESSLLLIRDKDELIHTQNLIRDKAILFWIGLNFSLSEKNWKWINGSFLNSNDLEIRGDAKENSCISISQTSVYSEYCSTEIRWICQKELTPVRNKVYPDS
B6 yielded an EC50 of 5.87 nM.
With B7, the response was half-maximal at 5.54 nM (EC50).
The same measure, in the same setting: under B8 stands 5.17 nM; under B9, 5.44 nM.

In another experiment the target is T2, cynomolgus KLRB1 on CHO-K1 (cynomolgus).
T2 chain: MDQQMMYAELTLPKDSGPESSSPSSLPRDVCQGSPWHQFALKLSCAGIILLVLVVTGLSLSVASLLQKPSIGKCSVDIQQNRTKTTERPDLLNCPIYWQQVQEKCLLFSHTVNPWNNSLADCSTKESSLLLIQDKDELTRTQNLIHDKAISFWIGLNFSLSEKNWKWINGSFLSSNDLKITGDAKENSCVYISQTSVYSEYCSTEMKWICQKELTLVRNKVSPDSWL
The experiment is described as follows: FACS. For orientation: In flow cytometry, cells or beads pass a laser one at a time.
The molecule B4 showed an EC50 of 2.59 nM.
On the same count and under the same terms, as for B5, the figure is 10.8 nM.

The target in the next experiment is T2, cynomolgus KLRB1 on CHO-K1. The experiment in a line: FACS. This is another data set of the same source.
As to B6, the binding result was “no binding”.
On the same count and under the same terms, under B7 stands “no binding”; under B8, “no binding”; under B9, “no binding”.

A further experiment concerns the target human KLRB1 on CHO-K1 (human). The experiment is described as follows: FACS. This is another data set of the same source.
In turn, B4 came in with an EC50 of 1.84 nM.
B5: the 50% effective concentration (EC50) came to 2.35 nM.

The target in another experiment is human KLRB1 ECD (human). The experiment in a line: ELISA. (In general: In an ELISA, binding on a coated surface is turned into a signal by an enzyme label.)
Turning to B4, the response was half-maximal at 0.0221 nM (EC50).
For B5, the EC50 turned out to be 0.0134 nM.

The next experiment concerns the target human KLRB1 ECD (human). The experiment is described as follows: ELISA. This is another data set of the same source.
Regarding B6, the EC50 is 0.0252 nM.
In turn, B7 had a half-maximal effective concentration (EC50) of 0.0197 nM.
On the same count and under the same terms, as for B8, the figure is 0.0113 nM; as for B9, 0.0236 nM.

The target of another experiment is T1, cynomolgus KLRB1 ECD. The experiment is described as follows: ELISA.
The molecule B4 returned a 50% effective concentration (EC50) of 0.0182 nM.
Same read-out and setting: as for B5, the figure is 0.0108 nM.

A further experiment concerns the target human KLRB1 on CHO-K1 (human). The experiment is described as follows: competition, CLEC2D, FACS.
Consider B4, for which the IC50 was determined as 2.54 nM.
B5 displayed an IC50 of 2.32 nM.

By Kd is commonly meant the constant that tells how readily two partners part at equilibrium. Broadly, the EC50 is the midpoint of the concentration-response curve. Higher therefore signals lower potency in that assay. One may read the IC50 as the concentration that inhibits the measured activity by half. A higher IC50 goes with weaker potency in that assay.
